± gives the uncertainty stated by the source.
B1: Homeobox protein cut-like 2, residues 895 to 963; numbered along this chain, O14529 (parent)
chain: EVDTLELTRQVKEKLAKNGICQRIFGEKVLGLSQGSVSDMLSRPKPWSKLTQKGREPFIRMQLWLSDQL

Variants of: B1
Test: abundance fitness (aPCA) (normalised: wild type 0, dead -1); higher = more abundant; growth selection in yeast, the domain comes from the species named
Conditions: Homo sapiens
For EVDTLELTRQVKEKLAKNGICQKIFGEKVLGLSQGSVSDMLSRPKPWSKLTQKGREPFIRMQLWLSDQL, the abundance fitness was 0.047 ± 0.049.
For EVDTLELTRQVKEKLAKNGICQLIFGEKVLGLSQGSVSDMLSRPKPWSKLTQKGREPFIRMQLWLSDQL, the abundance fitness was -0.203 ± 0.029.
For EVDTLELTRQVKETLAKNGICQRIFGEKVLGLSQGSVSDMLSRPKPWSKLTQKGREPFIRMQLWLSDQL, the abundance fitness was 0.077 ± 0.069.
Work on EVDTLELTRQVKEKLAKNGICQRIFGEKVLGLSQGSVSDMLSRPKPWSKLTQKGREPFIRMQEWLSDQL yielded an abundance fitness of 0.037 ± 0.11.
EVDTLELTRQVKEKLAKNGICQRIFGEKVLGLSQGSVSDMLSRPKPWSKLTQKGREPFIRMQVWLSDQL gave an abundance fitness of -0.103 ± 0.06.
Work on EVDTLELTRQVKEKLAKNGICQRIFGEKVLGLSQGSVSDMLSRPKPWSKLTQKGRKPFIRMQLWLSDQL yielded an abundance fitness of -0.156 ± 0.091.
Variant EVDTLELTRQVKEKLAKNGICQRIFGEKVLGLSQGSVSDMLSRPKPWSKLTQKGRRPFIRMQLWLSDQL has an abundance fitness of -0.157 ± 0.04.
For EVDTLELTRQVKEKLAKNGICQRIFGEKVLGLSQGSVSDKLSRPKPWSKLTQKGREPFIRMQLWLSDQL, the abundance fitness was -0.02 ± 0.074.
Work on EVDTLELTRQVKEKLAKNGICQRIFGEKVLGLSQGSVSDVLSRPKPWSKLTQKGREPFIRMQLWLSDQL yielded an abundance fitness of -0.046 ± 0.07.
EVDTLELTRQVKEKLAKNGICQRIFGEKVLGLSQGSVSDLLSRPKPWSKLTQKGREPFIRMQLWLSDQL showed an abundance fitness of 0.136 ± 0.036.
In the case of EVDTLELTRQVKEKLAKNGICQRIFGEFVLGLSQGSVSDMLSRPKPWSKLTQKGREPFIRMQLWLSDQL, the abundance fitness is reported as -0.327 ± 0.038.
In the case of EVDTLELTRQVKEKLAKNGICQRIFGEWVLGLSQGSVSDMLSRPKPWSKLTQKGREPFIRMQLWLSDQL, the abundance fitness is reported as -0.263 ± 0.037.
EVDTLELTRQVKEKLAKNGICQRIFGEGVLGLSQGSVSDMLSRPKPWSKLTQKGREPFIRMQLWLSDQL gave an abundance fitness of -0.184 ± 0.035.
In the case of EVDTLELTRQVKEKLAKNGICQRIFGEKVLGLSQGSVSDMLSRPKPWSKLLQKGREPFIRMQLWLSDQL, the abundance fitness is reported as -0.082 ± 0.033.
Work on EVDTLELTRQVKEKLAKNGICQRIFGEKVLGLSQGSVSDMLSRPYPWSKLTQKGREPFIRMQLWLSDQL yielded an abundance fitness of -0.265 ± 0.066.
With EVDTLELTRQVKEKLAKNVICQRIFGEKVLGLSQGSVSDMLSRPKPWSKLTQKGREPFIRMQLWLSDQL the abundance fitness was -0.417 ± 0.057.
Variant EVDTLELTRQVKEKLAKNRICQRIFGEKVLGLSQGSVSDMLSRPKPWSKLTQKGREPFIRMQLWLSDQL has an abundance fitness of 0.032 ± 0.065.
Variant EVDTLELTRQVKEKLAKNEICQRIFGEKVLGLSQGSVSDMLSRPKPWSKLTQKGREPFIRMQLWLSDQL has an abundance fitness of -0.46 ± 0.092.
With EVDTLELTRQVKEKLAKNQICQRIFGEKVLGLSQGSVSDMLSRPKPWSKLTQKGREPFIRMQLWLSDQL the abundance fitness was -0.242 ± 0.07.
For EVDTLELTRQVKEKLAKNGICQRIFGEKHLGLSQGSVSDMLSRPKPWSKLTQKGREPFIRMQLWLSDQL, the abundance fitness was -0.394 ± 0.054.
For EVDTLELTRQVKEKLAKNGICQRIFGEKLLGLSQGSVSDMLSRPKPWSKLTQKGREPFIRMQLWLSDQL, the abundance fitness was -0.108 ± 0.029.
In the case of EVDTLELTRQVKEKLAKNGICQRIFGEKCLGLSQGSVSDMLSRPKPWSKLTQKGREPFIRMQLWLSDQL, the abundance fitness is reported as -0.104 ± 0.064.
With EVDTLELTRQVKEKLAKNGICQRIFGEKWLGLSQGSVSDMLSRPKPWSKLTQKGREPFIRMQLWLSDQL the abundance fitness was -0.113 ± 0.044.
In the case of EVDTLELTRQVKEKLAKNGICQRIFGEKILGLSQGSVSDMLSRPKPWSKLTQKGREPFIRMQLWLSDQL, the abundance fitness is reported as 0.124 ± 0.051.
EVDTLELTRQVKEKLAKNGIRQRIFGEKVLGLSQGSVSDMLSRPKPWSKLTQKGREPFIRMQLWLSDQL gave an abundance fitness of -0.087 ± 0.031.
With EVDTLCLTRQVKEKLAKNGICQRIFGEKVLGLSQGSVSDMLSRPKPWSKLTQKGREPFIRMQLWLSDQL the abundance fitness was -0.231 ± 0.042.
With EVDTLELTRQVKEKLAKNGICQRIFGEKVLGLSQGSVSDMCSRPKPWSKLTQKGREPFIRMQLWLSDQL the abundance fitness was -0.452 ± 0.13.
Work on EVDTLELTRQVKEKLAKNGICQRIYGEKVLGLSQGSVSDMLSRPKPWSKLTQKGREPFIRMQLWLSDQL yielded an abundance fitness of -0.779 ± 0.1.
For EVDTLELTRQVKEKLAKNGICQRIWGEKVLGLSQGSVSDMLSRPKPWSKLTQKGREPFIRMQLWLSDQL, the abundance fitness was -0.053 ± 0.042.
Variant EVDTLELTRQVKEKLACNGICQRIFGEKVLGLSQGSVSDMLSRPKPWSKLTQKGREPFIRMQLWLSDQL has an abundance fitness of -0.2 ± 0.083.
EVDTLELTRQVKEKLAKNGICPRIFGEKVLGLSQGSVSDMLSRPKPWSKLTQKGREPFIRMQLWLSDQL showed an abundance fitness of -0.073 ± 0.06.
EVDTLELTRQVKEKLAKNGICQRIFGEKVLKLSQGSVSDMLSRPKPWSKLTQKGREPFIRMQLWLSDQL showed an abundance fitness of -0.129 ± 0.076.
With EVDTLELTRQVKEKLAKNGICQRIFGIKVLGLSQGSVSDMLSRPKPWSKLTQKGREPFIRMQLWLSDQL the abundance fitness was -0.128 ± 0.036.
With EVDTLELTRQVKEKLAKNGICQRIFGEKVLGLSQGSVSDMLSRPKPWSKLTQKGREPFIRMQLWLSDWL the abundance fitness was -0.087 ± 0.037.
With EVDTLELTRQVKEKLAKNGICQRIFGEKVLGLSQGSVSDMLSRPKPWSKLTQKGREPFIRMQLWLSDVL the abundance fitness was -0.072 ± 0.029.
With EVDTLELTRQVKEKLAKNGICQRIFGEKVLGLSQGSVSDMLSRPKPWSKLTQKGREPFIRMQLWASDQL the abundance fitness was -0.694 ± 0.093.
In the case of EVDTLELTRQVKEKLAKNGICQRIFGEKVDGLSQGSVSDMLSRPKPWSKLTQKGREPFIRMQLWLSDQL, the abundance fitness is reported as -0.588 ± 0.048.
Work on EVDTLELTRQVKEKLAKNGICQRIFGEKVGGLSQGSVSDMLSRPKPWSKLTQKGREPFIRMQLWLSDQL yielded an abundance fitness of -0.387 ± 0.032.
Variant EVDTLELTRQVKEKLAKNGICQRIFGEKVLGLSQGSVSDMLSRPKPWSKLTQKGREPFCRMQLWLSDQL has an abundance fitness of -0.278 ± 0.13.
